Results: patent US7238786B2, “Monoclonal antibody cPAM4” (Immunomedics, Inc., priority 2002, dated 2007)
Where a SMILES comes first, the peptide text is derived from it. Side-chain parts run from the residue outwards. The star is where a group is joined. DTPA = O=C(O)CN(CCN(CC(=O)O)CC(=O)O)CCN(CC(=O)O)CC(=O)*; X1 = NC(=S)NN=CC(=O)*

Experiments:
CaPan1 tumor = assay: Pre-targeting with bsMAb and radiolabeled peptide-haptens in CaPan1 tumor-bearing mice; conditions: peptide pre-targeted with bsPAM4, 3-Hours
Description: Mice were sacrificed at 3 and 24 hours after the administration of peptides and the % ID/g determined for the tumor and various tissues.

Normal Adult Tissues = assay: Immunoperoxidase staining of normal adult tissues with MAb PAM4; format: binding, human
From the text: (§1) Normal pancreatic tissue, including ducts, ductules, acini, and islet cells, were negative for staining. A PAM4 based enzyme immunoassay with tissue homogenates as antigens generally supported the immunohistology data (Table 2). The PAM4 epitope was absent from normal pancreas and other nongastrointestinal tissues. In neoplastic tissues, PAM4 was reactive with twenty one out of twenty five ([…]) pancreatic cancers (Table 3). PAM4 reactivity appeared to correlate with the stage of tumor differentiation. […] Generally, poorly differentiated tumors represent less than 10% of all pancreatic cancers.

Pancreatic Tumors = assay: Immunohistochemical reactivity of monoclonal antibodies with pancreatic tumors; format: binding, human; parameters: key to Immunohistochemical reactivity: −: Negative; +: 5–20% of tissue is stained; ++: 21–50% of tissue is stained; +++: >50% of tissue is stained
From the text: as §1
(§2) These studies have shown the PAM4 reactivity and tissue distribution (both normal and cancer) to be unlike that reported for CA19.9, DUPAN2, SPAN1, Nd2, B72.3, and the Lewis antigens. […] When compared to CA19.9, DUPAN2, and aLe^a, PAM4 appears to be more restricted in its tissue distribution and it is reactive with a higher percentage of pancreatic tumors. Moreover, it gives a greater overall intensity of reaction at equivalent concentrations and is reactive with a higher percentage of cells within the tumors. […] Although it is recognized that specificity is dependent upon the type of assay employed and the range and number of tissues examined, the ability of PAM4 to discriminate between normal and neoplastic pancreatic tissue, its ability to react with a large percentage of the cancer specimens, as well as the high intensity of the reactions, were important rationales for pursuing developmental studies of clinical application.

[1] = tested on: Normal Adult Tissue Homogenates; assay: PAM4 based enzyme immunoassay with tissue homogenates as antigens; format: binding, human
From the text: as §1

Neoplastic Tissues = assay: Immunoperoxidase staining of neoplastic tissues with MAb PAM4; format: binding, human
From the text: as §1

[2] = tested on: chronic pancreatitis specimens; assay: Immunohistochemistry of chronic pancreatitis specimens; format: binding, human; conditions: twelve specimens
From the text: as §2

CaPan1 = assay: Biodistribution and dosimetry of radiolabeled PAM4, CaPan1 xenograft; conditions: in vivo
Description: Initial biodistribution studies of PAM4 were carried out in a series of four different xenografted human pancreatic tumors covering the range of expected differentiation. […] The biodistribution data were used to estimate potential radiation doses to the tumor of 12,230; 10,684; 6,835; and 15,843 cGy/mCi of injected dose to AsPc1, BxPc3, Hs766T and CaPan1, respectively. With an actual maximum tolerated dose (MTD) of 0.7 mCi, PAM4 could provide substantial rad dose to each of the xenografted tumor models. […] Potential radiation doses to the blood from PAM4 were 1.4-4.4 fold lower than from Ag8. […] Importantly, potential radiation doses to non-tumor tissues were minimal.
The biodistribution of PAM4 was compared with an anti-CEA antibody, MN14, using the CaPan1 tumor model. The concentration of PAM4 within the tumor was much greater than the MN14 at early timepoints, yielding tumor:blood ratios at day three of 12.7±2.3 for PAM4 compared to 2.7±1.9 for MN14. […] This was due to a rapid clearance of PAM4 from the tumor, such that at later timepoints similar concentrations of the two antibodies were present within the tumors. A rapid clearance of PAM4 from the tumor was also noted in the BxPc3 and Hs766T but not AsPc1 tumor models. […] Results from studies on the metabolism of PAM4, indicate that after initial binding to the tumor cell, antibody is rapidly released, possibly being catabolized or being shed as an antigen:antibody complex. This might have had unfavorable implications for the use of the antibody in patients except that the blood clearance is also very rapid.
This type of splenic targeting has been observed in the clinical application of the anti-mucin antibodies B72.3 and CC49. […] The latter would require the presence of immune complexes in the blood; however, these were not observed when specimens as early as five minutes and as late as seven days were examined by gel filtration (HPLC, GF-250 column); radiolabeled antibody eluted as native material. The former explanation seems more likely in view of the fact that the CaPan1 tumor produced large quantities of PAM4-reactive antigen, 100 to 1000-fold higher than for the other tumor cell lines examined. […] In any event, splenic targeting can be overcome by increasing the protein dose to 10 ug from the original 2 ug dose. A greater amount of the splenic entrapped antigen presumably was complexed with unlabeled PAM4 rather than radiolabeled antibody. Increasing the protein dose had no adverse effect upon targeting of PAM4 to the tumor or nontumor tissues.

tumors = assay: Clinical studies with PAM4 MAb: targeting and dosimetry; format: in vivo, human; conditions: patients

Q: `CC(=O)N[C@@H](CCCCNC(=O)CN(CCN(CCN(CC(=O)O)CC(=O)O)CC(=O)O)CC(=O)O)C(=O)N[C@@H](Cc1ccc(O)cc1)C(=O)N[C@@H](CCCCNC(=O)CN(CCN(CCN(CC(=O)O)CC(=O)O)CC(=O)O)CC(=O)O)C(=O)N[C@@H](CCCCNC(=O)[C@H](CS)NC(=O)C=NNC(N)=S)C(N)=O` [^99mTc-IMP192, metal not drawn] (Ac-K(DTPA)YK(DTPA)K([Cys-X1])-NH2; N-terminus and C-terminus assumed) was tested. Which “Tumor: Non-Tumor Tissue Ratio, Mean” value (CaPan1 tumor; Blood) did it give?
A: The value was 9.93.

Q: And the “Tumor: Non-Tumor Tissue Ratio, Mean” value (CaPan1 tumor; Kidney)?
A: The value was 8.13.

Q: And the “Tumor: Non-Tumor Tissue Ratio, Mean” value (CaPan1 tumor; Liver)?
A: The value was 16.66.

Q: And the “Tumor: Non-Tumor Tissue Ratio, Mean” value (CaPan1 tumor; Lung)?
A: Its value is 15.75.

Q: And the “Tumor: Non-Tumor Tissue Ratio, Mean” value (CaPan1 tumor; Pancreas)?
A: Its value is 73.29.

Q: What about the “Tumor: Non-Tumor Tissue Ratio, Mean” value (CaPan1 tumor; Spleen) of the same molecule?
A: Its value is 14.62.

Q: And the “Tumor: Non-Tumor Tissue Ratio, Mean” value (CaPan1 tumor; Tumor)?
A: The value was 1.00.

Q: What does the source list for `CC(=O)N[C@@H](Cc1ccccc1)C(=O)N[C@@H](CCCCNC(=O)CN(CCN(CCN(CC(=O)O)CC(=O)O)CC(=O)O)CC(=O)O)C(=O)N[C@@H](Cc1ccc(O)cc1)C(=O)N[C@@H](CCCCNC(=O)CN(CCN(CCN(CC(=O)O)CC(=O)O)CC(=O)O)CC(=O)O)C(N)=O` [^111In-IMP156, metal not drawn] (Ac-FK(DTPA)YK(DTPA)-NH2; N-terminus and C-terminus assumed)?
A: Tumor: Non-Tumor Tissue Ratio, Mean (CaPan1 tumor; Blood): 36.47; Tumor: Non-Tumor Tissue Ratio, Mean (CaPan1 tumor; Bone): 123.24; Tumor: Non-Tumor Tissue Ratio, Mean (CaPan1 tumor; Kidney): 7.79; Tumor: Non-Tumor Tissue Ratio, Mean (CaPan1 tumor; Liver): 36.07; Tumor: Non-Tumor Tissue Ratio, Mean (CaPan1 tumor; Lung): 44.55; Tumor: Non-Tumor Tissue Ratio, Mean (CaPan1 tumor; Pancreas): 155.55; Tumor: Non-Tumor Tissue Ratio, Mean (CaPan1 tumor; Spleen): 33.40; Tumor: Non-Tumor Tissue Ratio, Mean (CaPan1 tumor; Tumor): 1.00; Tumor: Non-Tumor Tissue Ratio, Mean (CaPan1 tumor; W. Bone): 378.00

B1: PAM4: murine MUC1 monoclonal antibody developed with pancreatic cancer mucin from the xenografted RIP-1 human pancreatic carcinoma as immunogen (antibody, V domains shown)
VL: DIVMTQSPAIMSASPGEKVTMTCSASSSVSSSYLYWYQQKPGSSPKLWIYSTSNLASGVPARFSGSGSGTSYSLTISSMEAEDAASYFCHQWNRYPYTFGGGTKLEIK
VH: EVQLQESGPELVKPGASVKMSCKASGYTFPSYVLHWVKQKPGQGLEWIGYINPYNDGTQYNEKFKGKATLTSDKSSSTAYMELSRLTSEDSAVYYCARGFGGSYGFAYWGQGTLITVSA
Q: What does the source list for B1?
A: Staining Reaction (Normal Adult Tissues; Colon): + goblet cells; Staining Reaction (Normal Adult Tissues; Duodenum): + goblet cells; Staining Reaction (Normal Adult Tissues; Ileum): + goblet cells; Staining Reaction (Normal Adult Tissues; Jejunum): + goblet cells; Staining Reaction (Normal Adult Tissues; Stomach): + mucus secreting cells; Immunohistochemical reactivity, TOTAL (positive/examined) (Pancreatic Tumors; all pancreatic tumors): 21/25; Immunohistochemical reactivity (Pancreatic Tumors; pancreatic tumor 1, differentiation W): +++ (+++: >50% of tissue is stained); Immunohistochemical reactivity (Pancreatic Tumors; pancreatic tumor 2, differentiation M): ++ (++: 21–50% of tissue is stained); Immunohistochemical reactivity (Pancreatic Tumors; pancreatic tumor 3, differentiation M): + (+: 5–20% of tissue is stained); Immunohistochemical reactivity (Pancreatic Tumors; pancreatic tumor 4, differentiation M): +++ (+++: >50% of tissue is stained); Immunohistochemical reactivity (Pancreatic Tumors; pancreatic tumor 5, differentiation M): ++ (++: 21–50% of tissue is stained); Immunohistochemical reactivity (Pancreatic Tumors; pancreatic tumor 6, differentiation M): + (+: 5–20% of tissue is stained); Immunohistochemical reactivity (Pancreatic Tumors; pancreatic tumor 7, differentiation M, metastatic tissue): +++ (+++: >50% of tissue is stained); Immunohistochemical reactivity (Pancreatic Tumors; pancreatic tumor 8, differentiation M): + (+: 5–20% of tissue is stained); Immunohistochemical reactivity (Pancreatic Tumors; pancreatic tumor 9, differentiation M): ++ (++: 21–50% of tissue is stained); Immunohistochemical reactivity (Pancreatic Tumors; pancreatic tumor 10, differentiation M, metastatic tissue): ++ (++: 21–50% of tissue is stained); Immunohistochemical reactivity (Pancreatic Tumors; pancreatic tumor 11, differentiation M): ++ (++: 21–50% of tissue is stained); Immunohistochemical reactivity (Pancreatic Tumors; pancreatic tumor 12, differentiation M): ++ (++: 21–50% of tissue is stained); Immunohistochemical reactivity (Pancreatic Tumors; pancreatic tumor 13, differentiation M): + (+: 5–20% of tissue is stained); Immunohistochemical reactivity (Pancreatic Tumors; pancreatic tumor 14, differentiation M): ++ (++: 21–50% of tissue is stained); Immunohistochemical reactivity (Pancreatic Tumors; pancreatic tumor 15, differentiation M): +++ (+++: >50% of tissue is stained); Immunohistochemical reactivity (Pancreatic Tumors; pancreatic tumor 16, differentiation M): + (+: 5–20% of tissue is stained); Immunohistochemical reactivity (Pancreatic Tumors; pancreatic tumor 17, differentiation M): −; Immunohistochemical reactivity (Pancreatic Tumors; pancreatic tumor 18, differentiation M): ++ (++: 21–50% of tissue is stained); Immunohistochemical reactivity (Pancreatic Tumors; pancreatic tumor 19, differentiation M): +++ (+++: >50% of tissue is stained); Immunohistochemical reactivity (Pancreatic Tumors; pancreatic tumor 20, differentiation M): + (+: 5–20% of tissue is stained); Immunohistochemical reactivity (Pancreatic Tumors; pancreatic tumor 21, differentiation M): +++ (+++: >50% of tissue is stained); Immunohistochemical reactivity (Pancreatic Tumors; pancreatic tumor 22, differentiation P): + (+: 5–20% of tissue is stained); Immunohistochemical reactivity (Pancreatic Tumors; pancreatic tumor 23, differentiation P): −; Immunohistochemical reactivity (Pancreatic Tumors; pancreatic tumor 24, differentiation P): −; Immunohistochemical reactivity (Pancreatic Tumors; pancreatic tumor 25, differentiation P): −; tumors positive (Pancreatic Tumors; poorly differentiated pancreatic tumors): one out of four; pancreatic cancers reactive (Pancreatic Tumors; twenty one out of twenty five pancreatic cancers): 85%; tumors positive (Pancreatic Tumors; well and moderately differentiated pancreatic tumors): twenty out of twenty one; PAM4 reactivity by EIA ([1]; Adrenal, mean from two autopsy specimens): 1.3 ug/g tissues; PAM4 reactivity by EIA ([1]; Bladder, mean from two autopsy specimens): 4.9 ug/g tissues; PAM4 reactivity by EIA ([1]; CaPan1 Pancreatic Tumor): 569 ug/g tissues; PAM4 reactivity by EIA ([1]; Colon, mean from two autopsy specimens): 74.5 ug/g tissues; PAM4 reactivity by EIA ([1]; Duodenum, mean from two autopsy specimens): 44.7 ug/g tissues; PAM4 reactivity by EIA ([1]; Esophagus, mean from two autopsy specimens): 8.1 ug/g tissues; PAM4 reactivity by EIA ([1]; Gallbladder, mean from two autopsy specimens): 5.6 ug/g tissues; PAM4 reactivity by EIA ([1]; Heart, mean from two autopsy specimens): 3.7 ug/g tissues; PAM4 reactivity by EIA ([1]; Jejunum, mean from two autopsy specimens): 60.6 ug/g tissues; PAM4 reactivity by EIA ([1]; Kidney, mean from two autopsy specimens): 6.6 ug/g tissues; PAM4 reactivity by EIA ([1]; Liver, mean from two autopsy specimens): 0.0 ug/g tissues; PAM4 reactivity by EIA ([1]; Pancreas, mean from two autopsy specimens): 6.4 ug/g tissues; PAM4 reactivity by EIA ([1]; Spleen, mean from two autopsy specimens): 3.4 ug/g tissues; PAM4 reactivity by EIA ([1]; Stomach, mean from two autopsy specimens): 61.3 ug/g tissues; PAM4 reactivity by EIA ([1]; Testes, mean from two autopsy specimens): 3.9 ug/g tissues; PAM4 reactivity by EIA ([1]; Thyroid, mean from two autopsy specimens): 3.5 ug/g tissues; PAM4 reactivity by EIA ([1]; Ureter, mean from two autopsy specimens): 2.6 ug/g tissues; Positive/Total (Neoplastic Tissues; Breast neoplastic tissue): 0/30; Positive/Total (Neoplastic Tissues; Colon neoplastic tissue): 10/26; Positive/Total (Neoplastic Tissues; Kidney neoplastic tissue): 0/4; Positive/Total (Neoplastic Tissues; Liver neoplastic tissue): 0/10; Positive/Total (Neoplastic Tissues; Lung neoplastic tissue): 1/15; Positive/Total (Neoplastic Tissues; Ovarian neoplastic tissue): 0/10; Positive/Total (Neoplastic Tissues; Pancreas neoplastic tissue): 21/25; Positive/Total (Neoplastic Tissues; Prostate neoplastic tissue): 0/4; Positive/Total (Neoplastic Tissues; Stomach neoplastic tissue): 1/5; specimens reactive with PAM4 by immunohistochemistry (Neoplastic Tissues; colorectal cancer specimens): 40%; reactivity with chronic pancreatitis specimens [2]: only weakly reactive with three out of twelve; concentration of radiolabeled PAM4 within the CaPan1 tumor on increasing protein dose (CaPan1): more than doubled; dose to the tumor, fold higher than MN14 (CaPan1): 3.2 fold; splenic uptake (CaPan1): 3.1-7.5 % ID/g; tumor:blood ratio (CaPan1): 12.7±2.3; targeting of lesions (tumors): a majority of the lesions were targeted; uptake in normal tissues (tumors): no indication of uptake in normal tissues
